Source: publication PMC7114298

Biological target: MERS-CoV PLpro-[change] (wild type) (MERS-CoV) (UniProt K9N7C7)

Substance: Ub-AMC (from UniProt P0CG48 1-76) (natural protein)
- Km of Ub-AMC hydrolysis (steady-state kinetics, 25 °C): 16.6 µM
